Patent publication US20260022364A1, “ERT2 MUTANTS, INDUCIBLE CELL DEATH SYSTEMS, AND USES THEREOF” (Senti Biosciences, Inc., priority 2023, published 2026)

Key:
[1] = cited from earlier work; for estimated concentration in the brain, tissue, organs, and solid tumors / estimated concentration in the serum: tamoxifen orally 20 mg/day
U87MG: 1066 cells = experiment: Modified ER-LBD validation in U87MG with mCherry reporter; type: cell-based; conditions: SB01066 reporter
Protocol: About 16 hours before transduction 100k U87MG: 1066 cells were seeded into 16 wells in 12 well plate format. During transduction, cells in each well were transduced with 100k pg of virus of ERT2 variant constructs. After transduction, cells were split into 50k cells per well in a 24 well plate format, and treated with drug-free media or a range of endoxifen or 4-OHT drug conditions. About two days after treatment of cells with endoxifen or 4-OHT, cells were collected and mCherry reporter expression was quantified by flow cytometry.
Screening of the modified ER-LBD construct library identified a subset of ERT2 variants that were sensitive to endoxifen at 1 nM. Among this subset, 15 variants (Table 19) were validated in U87MG cells for their ability to activate an mCherry reporter (SB01066; FIG. 14B) at a range of concentrations of 0 pM, 10 pM, 50 pM, 100 pM, and 1 nM of endoxifen (FIG. 15A) and 4-OHT (FIG. 15B). Expression of mCherry was quantified about […] after treatment with endoxifen or 4-OHT.
Select ERT2 variants (Table 20) from the previous screens were further tested for sensitivity to endoxifen and 4-OHT, compared to wild-type ERT2. […] Fold activation was calculated by gMFI mCherry levels of each test condition divided by gMFI mCherry levels of U87MG cells transduced with the reporter (SB01066).

[2] = tested on: U87MG: 1066 reporter cell line; experiment: ERT2 mutant transcriptional switch activity, mCherry reporter; type: cell-based; conditions: range of endoxifen concentrations
Protocol: FIG. 26A depicts constructs and experimental methods for evaluating exemplary ERT2 mutant transcriptional switches. U87MG cells were transduced with the mCherry reporter construct SB01066, comprising synthetic promoter comprising a 4×ZF-10 zinc finger binding site (SEQ ID NO: 59) linked to a minimal promoter operably linked to an mCherry encoding sequence. This generated a U87MG: 1066 reporter cell line used for assessing transcriptional switch activity of ERT2 transcriptional switch constructs.
25k U87MG: 1066 reporter transduced line was transduced at a MOI of 1 with various ERT2 transcriptional switch constructs having the following structure: pSFFV: ZF10-1 (zinc finger DNA binding domain, SEQ ID NO: 84)_TCR linker (SEQ ID NO: 86)_p65 (transcriptional activation domain, SEQ ID NO: 64)_[…] linker (SEQ ID NO: 88)_ERT2 domain. The ERT2 mutants included a number of amino acid substitutions in addition to the “WT ERT2” mutations G400V/M543A/L544A/V595A.
The next day, cells were split into no drug or drug titration conditions to evaluate performance at a range of endoxifen and estradiol concentrations. Performance of each ERT2 mutant transcriptional switch was evaluated by their ability to translocate and bind to the zinc finger binding site upstream of mCherry and initiate mCherry expression.
The background normalized ND (0) conditions were divided by the average NV gMFI mCherry value in order to reflect any basal activity seen by each mutant. FIG. 26C depicts induced mCherry expression plotted against basal activity for each of the tested ERT2 transcriptional switch constructs.

[3] = tested on: U87MG: 2357 reporter cell line; experiment: ERT2 mutant transcriptional switch inducing an IL-12 payload (IL-12p70 ELISA); type: cell-based; conditions: 72 hours
Protocol: FIG. 28A depicts constructs and experimental methods for evaluating exemplary ERT2 mutant transcriptional switches for inducing expression of an IL-12 payload. U87MG cells were transduced with construct SB02357, comprising synthetic promoter comprising a 4×ZF-10 zinc finger binding site (SEQ ID NO: 59) linked to a minimal promoter operably linked to an IL-12 encoding sequence. This generated a U87MG: 2357 reporter cell line used for assessing the ability of ERT2 transcriptional switch constructs to activate transcription of the IL-12 payload in a ligand-dependent manner.
25k U87MG: 2357 IL-12 payload transduced line was transduced with MOI of 1 of the ERT2 constructs SB03422, SB06149, SB09626, SB09642, SB09652, and SB09657, which are described in Example 9. […] The next day, cells were split into ND or drug titration conditions to evaluate performance at a range of Endoxifen and concentrations. 72 hours later, supernatant was harvested for quantification of IL-12 by IL-12p70 ELISA. IL-12 levels were read with a spectrophotometer at wavelength 450 nm with wavelength correction to 540 nm according to manufacturer's protocol. A kit-provided standard to calculate detected levels of IL-12 in 100 μL of media harvested from ˜100k cells based on OD.

Molecule	fold activation and induced mCherry levels compared to WT (SB03422) [2]	endoxifen concentration at which IL-12 expression is induced [3]	also measured
CC/C(=C(\c1ccc(O)cc1)c1ccc(OCCNC)cc1)c1ccccc1 [endoxifen]			estimated concentration in the brain, tissue, organs, and solid tumors [1]: 2.5 nM; estimated concentration in the serum [1]: 0.25 nM
CC/C(=C(\c1ccccc1)c1ccc(OCCN(C)C)cc1)c1ccccc1 [tamoxifen]			average peak plasma concentration ([1]; typical clinical dose of tamoxifen): approximately 40 ng/ml
CC/C(=C(\c1ccc(O)cc1)c1ccc(OCCN(C)C)cc1)c1ccccc1 [Construct 4-OHT, 4-hydroxytamoxifen]			estimated concentration in the brain, tissue, organs, and solid tumors [1]: 0.4 nM; estimated concentration in the serum [1]: 0.04 nM
wild-type ERT2: ERT2 with G400V/M543A/L544A/V595A, SEQ ID NO: 3; benchmark construct (protein) SAGDMRAANLWPSPLMIKRSKKNSLALSLTADQMVSALLDAEPPILYSEYDPTRPFSEASMMGLLTNLADRELVHMINWAKRVPGFVDLTLHDQVHLLECAWLEILMIGLVWRSMEHPVKLLFAPNLLLDRNQGKCVEGMVEIFDMLLATSSRFRMMNLQGEEFVCLKSIILLNSGVYTFLSSTLKSLEEKDHIHRVLDKITDTLIHLMAKAGLTLQQQHQRLAQLLLILSHIRHMSNKGMEHLYSMKCKNVVPLYDLLLEAADAHRLHAPTSRGGASVEETDQSHLATAGSTSSHSLQKYYITGEAEGFPATA			4-OHT concentration at which mCherry reporter expression is activated (U87MG: 1066 cells): about 25 nM; endoxifen concentration at which mCherry reporter expression is activated (U87MG: 1066 cells): about 25 nM
SB09626: ERT2 mutant transcriptional switch construct pSFFV: ZF10-1_p65_ERT2 domain (Table 23) (protein, ERT2 domain of ZF10-1_p65_ERT2 construct) SAGDMRAANLWPSPLMIKRSKKNSLALSLTADQMVSALLDAEPPILYSEYDPTRPFSEASMMGLLTNLADREIVHMINWAKRVPGFVDLTLHDQVHLLECAWLEILMIGLVWRSMEHPVKLLFAPNLLLDRDQGKCVEGLVEIFDMLLATSSRFRMMNLQGEEFVCLKSIILLNSGVYTFLPSTLKSLEEKDHIHRVLDKITDTLIHLMAKAGLTLQQQHQRLAQLLLILSHIRHMSNKGMELLYSMKCKNVVPLYDLLLEAADAHRLHAPTSRGGASVEETDQSHLATAGSTSSHSLQKYYITGEAEGFPATA	highest fold activation and induced mCherry levels	0.1 nM	
SB09642: ERT2 mutant transcriptional switch construct pSFFV: ZF10-1_p65_ERT2 domain (Table 23) (protein, ERT2 domain of ZF10-1_p65_ERT2 construct) SAGDMRAANLWPSPLMIKRSKKNSLALSLTADQMVSALLDAEPPILYSEYDPTRPFSEASMMGLLTNLADRELVHMINWAKRVPGFVDLTLHDQVHLLECAWMEILMIGLVWRSMEHPVKLLFAPNLVLDRDQGKCVEGLVEIFDMLLATSSRFRMMNLQGEEFVCLKSIILLNSGVYTFLPSTLKSLEEKDHIHRVLDKITDTLIHLMAKAGLTLQQQHQRLAQLLLILSHIRHMSNKGMELLYSMKCKNVVPLYDLLLEAADAHRLHAPTSRGGASVEETDQSHLATAGSTSSHSLQKYYITGEAEGFPATA	highest fold activation and induced mCherry levels	0.1 nM	
SB09657: ERT2 mutant transcriptional switch construct pSFFV: ZF10-1_p65_ERT2 domain (Table 23) (protein, ERT2 domain of ZF10-1_p65_ERT2 construct) SAGDMRAANLWPSPLMIKRSKKNSLALSLTADQMVSALLDAEPPILYSEYDPTRPFSEASMMGLLTNLADREIVHMINWAKRVPGFVDLTLHDQVHLLECAWMEILMIGLVWRSMEHPVKLLFAPNLLLDRDQGKCVEGMVEIFDMLLATSSRFRMMNLQGEEFVCLKSIILLNSGVYTFLPSTLKSLEEKDHIHRVLDKITDTLIHLMAKAGLTLQQQHQRLAQLLLILSHIRHMSNKGMELLYSMKCKNVVPLYDLLLEAADAHRLHAPTSRGGASVEETDQSHLATAGSTSSHSLQKYYITGEAEGFPATA	highest fold activation and induced mCherry levels	0.1 nM	
SB09652: ERT2 mutant transcriptional switch construct pSFFV: ZF10-1_p65_ERT2 domain (Table 23) (protein, ERT2 domain of ZF10-1_p65_ERT2 construct) SAGDMRAANLWPSPLMIKRSKKNSLALSLTADQMVSALLDAEPPILYSEYDPTRPFSEASMMGLLTNLADREIVHMINWAKRVPGFVDLTLHDQVHLLECAWLEILMIGVVWRSMEHPVKLLFAPNLLLDRDQGKCVEGLVEIFDMLLATSSRFRMMNLQGEEFVCLKSIILLNSGVYTFLPSTLKSLEEKDHIHRVLDKITDTLIHLMAKAGLTLQQQHQRLAQLLLILSHIRHASNKGMELLYSMKCKNVVPLYDLLLEAADAHRLHAPTSRGGASVEETDQSHLATAGSTSSHSLQKYYITGEAEGFPATA	highest fold activation and induced mCherry levels	0.1 nM	
